This is an account of results in patent publication US7597889.

Assay [1] concerns the target human FcγRI (human) (UniProt P12314). The assay is described as follows: fluorescent staining of FcγRI transfectants, flow cytometry. Background: In flow cytometry, cells or beads pass a laser one at a time.
For assay [2] the target is unchanged. In words: rosetting of FcγRI-bearing B2KA cells by R2R2 RBC coated with Ab; coating concentration.
Assay [3] shares this target. In words: rosetting after centrifuging RBC coated with 1 µg/ml Fog-1 G1 together with B2KA cells.
The target of another assay is FcγRIIa 131H/H (human) (UniProt P12318). The assay is described as follows: staining of 3T6+FcγRIIa 131H/H cells with complexed Ab (summary).

Where only a bound is given, the exact number is not on record here.

Sequence of UniProt P12314 (P12314 16-374): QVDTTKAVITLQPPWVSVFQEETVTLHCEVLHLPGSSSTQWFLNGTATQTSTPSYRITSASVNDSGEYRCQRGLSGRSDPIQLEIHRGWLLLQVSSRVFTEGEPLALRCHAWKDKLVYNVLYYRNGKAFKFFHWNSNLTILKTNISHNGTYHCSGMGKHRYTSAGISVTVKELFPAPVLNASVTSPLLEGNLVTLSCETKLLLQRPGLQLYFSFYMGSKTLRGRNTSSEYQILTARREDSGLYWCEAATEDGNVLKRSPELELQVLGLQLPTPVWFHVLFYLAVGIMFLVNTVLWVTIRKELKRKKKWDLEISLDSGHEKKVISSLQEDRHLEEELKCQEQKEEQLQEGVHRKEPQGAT
Sequence of UniProt P12318 (P12318 34-317): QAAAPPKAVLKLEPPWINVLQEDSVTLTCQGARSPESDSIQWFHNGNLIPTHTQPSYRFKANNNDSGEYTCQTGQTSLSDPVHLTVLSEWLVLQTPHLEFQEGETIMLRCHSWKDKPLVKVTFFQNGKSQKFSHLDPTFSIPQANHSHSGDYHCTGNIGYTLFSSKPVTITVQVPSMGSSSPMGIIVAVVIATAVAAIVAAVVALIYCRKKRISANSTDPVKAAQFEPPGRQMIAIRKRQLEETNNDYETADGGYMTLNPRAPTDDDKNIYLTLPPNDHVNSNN

As to Fog-1 G4Δb (antibody), the fold reduction of binding against the parent subclass in the assay with human FcγRI (human) [1] is above 10000 fold.
In the case of CAMPATH-1 G4Δb (antibody), the fold reduction of binding against the parent subclass in the assay with human FcγRI (human) [1] was above 10000 fold.
Turning to CAMPATH-1 G1Δb (antibody), the fold reduction of binding against the parent subclass with human FcγRI (human) [1] was above 10000 fold.
As for Fog-1 G1Δac (antibody), the fold reduction of binding against the parent subclass with human FcγRI (human) [1] is above 10000 fold.
For Fog-1 G1 (antibody), the EC50 in the assay with human FcγRI (human) [2] came to 0.1 µg/mL. Besides, the percent of B2KA cells with rosettes with human FcγRI (human) [3] is 95%.
Regarding CAMPATH-1 G4Δc (antibody), in the assay with human FcγRI (human) [1], the fold reduction of binding against the parent subclass was above 10000 fold.
As for Fog-1 G1Δc (antibody), in the assay with FcγRIIa 131H/H (human), the fold lower activity than IgG1 worked out at 10 fold. Also, the fold reduction of binding against the parent subclass in the assay with human FcγRI (human) [1] was above 10000 fold.
In the assay with FcγRIIa 131H/H (human), Fog-1 G1Δb (antibody) had a fold lower activity than IgG1 of 50 fold. In addition, the fold reduction of binding against the parent subclass with human FcγRI (human) [1] was above 10000 fold.
For Fog-1 G1Δa (antibody), the EC50 in the assay with human FcγRI (human) [2] is 0.1 µg/mL.
Take Fog-1 G4Δc (antibody): the fold reduction of binding against the parent subclass with human FcγRI (human) [1] was above 10000 fold.
Still for that read-out and setting: the same measure for Fog-1 G1Δab (antibody): above 10000 fold.
In the case of CAMPATH-1 G1Δc (antibody), the fold reduction of binding against the parent subclass with human FcγRI (human) [1] was above 10000 fold.
For CAMPATH-1 G1Δac (antibody), in the assay with human FcγRI (human) [1], the fold reduction of binding against the parent subclass is above 10000 fold.
The same measure, in the same setting: the same measure for CAMPATH-1 G1Δab (antibody): above 10000 fold.

What is called EC50 is the concentration that produces a half-maximal response. Read a low EC50 as an effect from little substance.
